# According to patent US9616101B2, “Differentiation marker and differentiation control of eye cell” (Kyoto Prefectural Public University Corporation, priority 2012, dated 2017):
# “Also recorded” adds a separate entry of the source.
# Tests used:
# [1] = system: cultured monkey corneal endothelial cell; assay: Detection of proliferating cells with Click-iT EdU Imaging Kit after R-spondin 1 addition; format: cell-based, cynomolgus monkey; details: 10 ng/ml or 50 ng/ml R-spondin 1; almost confluent cells; 48 hours after addition
# Experimental: After addition of an R-spondin 1 protein to a cultured monkey corneal endothelial cell and culturing for 48 hours, a cell during proliferation was detected using the Click-iT Edu imaging Kit, and the positivity rates of EdU and the cell densities of a control cell and a cell to which R-spondin 1 was added were compared.
# EdU (5-ethynyl-2′-deoxyuridine) is a modified nucleic acid taken into DNA at a DNA synthesis phase by a chemical reaction, and is widely used in place of a conventional BrdU for identifying a DNA synthesis phase cell. By measuring the positivity rate of EdU, the proliferative cell rate in a cultured cell is found.
# (§1) A cultured monkey corneal endothelial cell (Lot. 20111222-4 P2) was treated with 0.05% trypsin at 37° C. for 10 minutes, peeled from a T-25 flask, and suspended in a culture medium (10% FBS+bFGF/DMEM). The number of cells was counted, and the suspension was adjusted with a culture medium to 3×10^4 cells/300 μl. Cells were seeded on a Lab-TekII chamber Slide (8 well) coated with FNS, in 300 μl/well.
# At 7 days after cell seeding, a medium was exchanged with a medium containing R-spondin 1 (0, 10, 50 ng/ml) in the state where cells were almost confluent, and at 24 hours after addition of R-spondin 1, Click-iT EdU was added so that the final concentration was 10 μM. […]
# [2] = system: cytosol β-catenin and p-LRP6; assay: Western blotting of Wnt/β-catenin-associated molecules in human CEC with or without RSPO1; format: cell-based
# From the text: For Western blotting, the following rabbit polyclonal antibodies: anti-LRP6, p-LRP6 (Cell Signaling Technology, Inc., Beverly, Mass.), as well as the following mouse monoclonal antibodies: β-catenin (BD Biosciences) and β-actin (Sigma-Aldrich, St. Louis, Mo.); were used. As a secondary antibody, HRP-labeled anti-rabbit or mouse IgG (GE Healthcare, Piscataway, N.J.) was used. Recombinant human SHH, purmorphamine, cyclopamine and RSpos were purchased from R&D Systems Inc. (Minneapolis, Minn.).
# Cultured human CEC was washed with PBS, and then, rinsed with a lysis buffer containing PBS, 1% TRITON™ X-100, 0.5 M EDTA, phosphatase inhibitor cocktail 2 (Sigma-Aldrich) and […] (Roche). Detection of activated β-catenin (non-membrane-bound type) was implemented according to the protocol previously reported [Aghib D F et al., Exp Cell Res., 1995; 218: 359-369]. In brief, a cell lysate treated with Con A Sepharose™ 4B (GE Healthcare) was incubated at 4° C. for 1 hour. After centrifugation at 4° C. for 10 minutes, the supernatant was transferred into a new tube, Con A Sepharose™ was added to each tube, and the resultant was incubated at 4° C. for 1 hour. Finally, after simple centrifugation, the supernatant was transferred into a new tube, and the protein concentration was determined.
# Then, the protein was separated by SDS-PAGE, and transferred to a PVDF membrane. […]
# [3] = system: corneal endothelial cell of rabbit sclerocorneal section; assay: Organ culture of rabbit sclerocorneal section with R-spondin 1: corneal endothelial cell density (ZO-1); format: cell-based, white rabbit; details: control 3674
# Experimental: (§2) Eyeballs of white rabbit (Nacalai) euthanized for another object were purchased, and a sclerocorneal section was prepared. The sclerocorneal section was cultured in an incubator at 37° C. for 1 week in DMEM (INVITROGEN, catalog No.: 12320) and 10% fetal bovine serum (FBS) (BIOWEST, catalog No.: 51820-500). […] A corneal endothelial cell was subjected to nuclear staining with DAPI, and the Ki67-positive cell rate was calculated. In addition, a corneal endothelial cell was immunostained with ZO-1, and the cell density was calculated.
# [4] = system: cultured monkey corneal endothelial cell; assay: Cell density measurement (Konan KSS-400EB) after R-spondin 1 addition; format: cell-based, cynomolgus monkey; details: 10 ng/ml or 50 ng/ml R-spondin 1; 48 hours after addition
# Experimental: as §1
# At 7 days after cell seeding, a medium was exchanged with a medium containing R-spondin 1 (0, 10, 50 ng/ml) in the state where cells were almost confluent, and at 24 hours after addition of R-spondin 1, Click-iT EdU was added so that the final concentration was 10 μM. (Although a manual of Kit recommended that a half of a medium was exchanged, a medium was not exchanged) After additional 24 hours (48 hours after addition of R-spondin 1), cells were fixed with 4% PFA/PBS, EdU was detected according to a manual of Kit, and the EdU-positive cell rate was counted (FIGS. 8 and 9).
# A chamber slide after staining was photographed with a phase contrast microscope, and the cell density was measured using the corneal endothelial cell density calculating software, Konan Storage System KSS-400EB (FIG. 10).
# [5] = system: corneal endothelial cell of rabbit sclerocorneal section; assay: Organ culture of rabbit sclerocorneal section with R-spondin 1: Ki67-positive cell rate; format: cell-based, white rabbit; details: control about 1.0%
# Experimental: as §2
molecule,measurement,setting,value
"R-spondin 1: Recombinant Human R-spondin 1 (R&D Cat. 4645-RS); ligand of GPR49/LGR5 (protein, listed as Homo sapiens) MRLGLCVVALVLSWTHLTISSRGIKGKRQRRISAEGSQACAKGCELCSEVNGCLKCSPKLFILLERNDIRQVGVCLPSCPPGYFDARNPDMNKCIKCKIEHCEACFSHNFCTKCKEGLYLHKGRCYPACPEGSSAANGTMECSSPAQCEMSEWSPWGPCSKKQQLCGFRRGSEERTRRVLHAPVGDHAACSDTKETRRCTVRRVPCPEGQKRRKGGQGRRENANRNLARKESKEAGAGSRRRKGQQQQQQQGTVGPLTSAGPA",EdU-positive cell/DAPI as compared with a control,[1],increased two times; also recorded: increased twice
same,protein level of cytosol β-catenin and p-LRP6,"[2]; cell transfected with GPR49/LGR5 and treated with RSPO1 (50 ng/ml), as compared with NT cell",clearly decreased
same,protein level of cytosol β-catenin and p-LRP6,"[2]; cells transfected with NT and GPR49/LGR5, treated with RSPO1 (50 ng/ml), as compared with cell group not treated with RSPO1",decreased
same,corneal endothelial cell density,"[3]; 1 ng/ml R-spondin 1, 1 week",4314 cells/mm^2
same,corneal endothelial cell density,"[3]; 10 ng/ml R-spondin 1, 1 week",4626 cells/mm^2
same,corneal endothelial cell density,"[3]; 100 ng/ml R-spondin 1, 1 week",5037 cells/mm^2
same,cell density as compared with a control,[4],1.3 times
same,rate of a Ki67-positive cell,"[5]; 1 ng/ml R-spondin 1, 1 week",4.49%
same,rate of a Ki67-positive cell,"[5]; 10 ng/ml R-spondin 1, 1 week",10.58%
same,rate of a Ki67-positive cell,"[5]; 100 ng/ml R-spondin 1, 1 week",7.94%
